The source of these data is the supplement of paper PMC12783771.

Sequences and labels used below:
B1: library; numbered along this chain (parent)
chain: MNIQIGELAKRTACPVVTIRFYEQEGLLPPPGRSRGNFRLYGEEHVERLQFIRHCRSLDMPLSDVRTLLSYRKRPDQDCGEVNMLLDEHIRQVESRIGALLELKHHLVELREACSGARPAQSCGILQGLSDCVCDTRGTTAHPSD

Data set [1] covers variants of B1. The data set can be described thus: sfGFP reporter fluorescence (15 h) (µM FITC); higher = higher leak. Conditions: library round: Round 1; ligand: none. The method, boiled down:
(§1)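 Linear PbrR templates were made by PCR, normalized to 5 nM with an Echo, and expressed in BL21 Star (DE3) PANOx-SP extract with the pPbrR-sfGFP reporter plasmid and 30 μg/mL GamS. Echo-assembled 1 μL reactions held 1 µM lead chloride, 30 µM zinc acetate or no metal and were incubated 15 hr at 30 °C. Endpoint sfGFP fluorescence was read on a Synergy Neo2 and expressed as µM FITC using standard curves. Up to three biological replicates were run.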

Variants of B1 are the subject of data set [2]. The data set can be described thus: sfGFP reporter fluorescence (15 h) (µM FITC); higher = stronger transcriptional activation. The conditions noted are these: library round: Round 1. The method, boiled down:
as §1

In data set [3] the parent is B1. The data set can be described thus: sfGFP reporter fluorescence (15 h) (µM FITC); higher = higher leak. Conditions: library round: Round 0; ligand: none. Here is the method:
(§2)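 Cell-free (BL21 Star DE3 extract, PANOx-SP) biosensing: 1 µL Echo-assembled reactions with linear PbrR variant templates (5 nM) and pPbrR-sfGFP reporter, with 1 µM Pb (lead chloride), 30 µM Zn (zinc acetate) or no ligand; endpoint sfGFP fluorescence after 15 h at 30 °C, calibrated as µM FITC. Round 0 library (alanine scan, site saturation, combinatorial) of PbrR from Cupriavidus metallidurans; 2 biological replicates.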

The variants in data set [4] derive from B1. Briefly: sfGFP reporter fluorescence (15 h) (µM FITC); higher = stronger transcriptional activation. The conditions noted are these: library round: Round 0. As for the experimental part: as §2

± gives the standard deviation of the averaged measurements.

With D131A D135S, the sfGFP reporter fluorescence is 0.0699 ± 0.0026 in data set [1], 0.0955 ± 0.0012 in data set [2] (ligand: 1 µM Pb) and 0.604 ± 0.0087 in data set [2] (ligand: 30 µM Zn).
The matching figures for D131A D135P: 0.0689 ± 0.0013, 0.119 ± 0.0078 and 0.654 ± 0.017.
The matching figures for N83T R96A: 0.0645 ± 0.00037, 0.0756 ± 0.0031 and 0.0938 ± 0.0026.
For P61L D64K, the values for the sfGFP reporter fluorescence in data set [1], in data set [2] (ligand: 1 µM Pb) and in data set [2] (ligand: 30 µM Zn) were 0.06157 ± 0.00037, 0.0655 ± 0.0074 and 0.06389 ± 0.00056, respectively.
The matching figures for D64K I90C K104V: 0.0914 ± 0.0024, 0.341 ± 0.073 and 0.959 ± 0.086.
For D64G N83S D135A, the sfGFP reporter fluorescence in data set [1] turned out to be 0.0656 ± 0.00097; in data set [2] (ligand: 1 µM Pb), 0.0915 ± 0.002; in data set [2] (ligand: 30 µM Zn), 0.292 ± 0.0096.
The corresponding values for P61N D131A P143W are 0.0886 ± 0.0011, 0.134 ± 0.023 and 0.59 ± 0.051.
The corresponding values for N83T D135A P143A are 0.0625 ± 0.002, 0.0748 ± 0.0033 and 0.162 ± 0.0078.
As to D64T D135A, the figures for the sfGFP reporter fluorescence in data set [1], in data set [2] (ligand: 1 µM Pb) and in data set [2] (ligand: 30 µM Zn) were 0.13 ± 0.0033, 0.23 ± 0.0095 and 1.63 ± 0.1, respectively.
On to D131A D135A P143A, for which the sfGFP reporter fluorescence in data set [1] is 0.0687 ± 0.0035; in data set [2] (ligand: 1 µM Pb), 0.0917 ± 0.0098; in data set [2] (ligand: 30 µM Zn) it was 0.487 ± 0.043.
The matching figures for P61N D131C: 0.108 ± 0.0091, 0.428 ± 0.043 and 1.59 ± 0.16.
For P61N D131Y, the values for the sfGFP reporter fluorescence in data set [1], in data set [2] (ligand: 1 µM Pb) and in data set [2] (ligand: 30 µM Zn) were 0.0734 ± 0.00076, 0.115 ± 0.0094 and 0.59 ± 0.078, respectively.
N83M D135A: the sfGFP reporter fluorescence in data set [1] stood at 0.0564 ± 0.0017; in data set [2] (ligand: 1 µM Pb) it was 0.102 ± 0.0031; in data set [2] (ligand: 30 µM Zn), 0.07 ± 0.0044.
The corresponding values for L107E G128I are 0.0629 ± 0.0025, 0.0633 ± 0.0023 and 0.0621 ± 0.0022.
For the variant M60L D64K K104V D131C, the sfGFP reporter fluorescence is 0.504 ± 0.028 in data set [1], 1.29 ± 0.22 in data set [2] (ligand: 1 µM Pb) and 1.91 ± 0.2 in data set [2] (ligand: 30 µM Zn).
The matching figures for D64T K104T: 0.207 ± 0.0096, 0.472 ± 0.087 and 1.83 ± 0.16.
The corresponding values for R111L G128P are 0.0584 ± 0.0015, 0.0568 ± 0.0028 and 0.0542 ± 0.0045.
The corresponding values for R111L G128I are 0.0666 ± 0.0024, 0.0985 ± 0.0091 and 0.528 ± 0.024.
Q121A D135A: the sfGFP reporter fluorescence in data set [1] was determined as 0.0661 ± 0.0031; in data set [2] (ligand: 1 µM Pb), 0.0888 ± 0.0096; in data set [2] (ligand: 30 µM Zn), 0.743 ± 0.11.
On to P61N D64K D135A, for which the sfGFP reporter fluorescence in data set [1] amounted to 0.123 ± 0.0068; in data set [2] (ligand: 1 µM Pb), 0.376 ± 0.011; in data set [2] (ligand: 30 µM Zn) it was 1.33 ± 0.12.
The corresponding values for E109D D135R are 0.06377 ± 0.00037, 0.0733 ± 0.0076 and 0.422 ± 0.031.
The matching figures for M60L D135A: 0.0914 ± 0.0019, 0.258 ± 0.02 and 1.4 ± 0.16.
The matching figures for P61N D135R: 0.0732 ± 0.00085, 0.164 ± 0.0087 and 0.708 ± 0.075.
For the variant P61N D135A, the sfGFP reporter fluorescence was determined as 0.0764 ± 0.0016 in data set [1], 0.152 ± 0.014 in data set [2] (ligand: 1 µM Pb) and 0.791 ± 0.096 in data set [2] (ligand: 30 µM Zn).
The matching figures for N83Y K104V: 0.0651 ± 0.0031, 0.119 ± 0.024 and 0.0894 ± 0.0065.
The corresponding values for P61N D64T E112I are 0.0771 ± 0.0039, 0.153 ± 0.018 and 0.942 ± 0.03.
D64T E88A C134E: the figures for the sfGFP reporter fluorescence in data set [1], in data set [2] (ligand: 1 µM Pb) and in data set [2] (ligand: 30 µM Zn) were 0.204 ± 0.031, 0.238 ± 0.062 and 1.65 ± 0.15, respectively.
For the variant E94F K104V G128H, the sfGFP reporter fluorescence in data set [1] is 0.0634 ± 0.002; in data set [2] (ligand: 1 µM Pb), 0.0647 ± 0.0031; in data set [2] (ligand: 30 µM Zn) it was 0.0833 ± 0.0084.
Take V82I E112I D131C: the sfGFP reporter fluorescence in data set [1] worked out at 0.0625 ± 0.0026; in data set [2] (ligand: 1 µM Pb) it was 0.0635 ± 0.0028; in data set [2] (ligand: 30 µM Zn) it was 0.0669 ± 0.0057.
The corresponding values for K104R C134I are 0.0715 ± 0.00073, 0.152 ± 0.007 and 1.14 ± 0.072.
Take D135A P143F: the sfGFP reporter fluorescence in data set [1] came out at 0.0621 ± 0.0018; in data set [2] (ligand: 1 µM Pb), 0.0718 ± 0.0013; in data set [2] (ligand: 30 µM Zn), 0.299 ± 0.028.
The matching figures for D64K N83F: 0.0616 ± 0.0024, 0.198 ± 0.035 and 0.143 ± 0.01.
As for unchanged, the sfGFP reporter fluorescence came to 0.0626 ± 0.0021 in data set [1]; 0.0588 ± 0.0029 in data set [3]; 0.0826 ± 0.03 in data set [4] (ligand: 1 µM Pb); 0.722 ± 0.087 in data set [4] (ligand: 30 µM Zn); 0.0729 ± 0.0052 in data set [2] (ligand: 1 µM Pb); 0.487 ± 0.22 in data set [2] (ligand: 30 µM Zn).
For the variant M60L D131C, the figures for the sfGFP reporter fluorescence in data set [1], in data set [2] (ligand: 1 µM Pb) and in data set [2] (ligand: 30 µM Zn) were 0.0866 ± 0.0039, 0.248 ± 0.025 and 0.694 ± 0.081, respectively.
The matching figures for L28V C134T: 0.06536 ± 0.00042, 0.0943 ± 0.0028 and 0.646 ± 0.022.
The corresponding values for D64I D135T are 0.164 ± 0.02, 0.514 ± 0.04 and 1.63 ± 0.29.
Regarding D131L D135S, the sfGFP reporter fluorescence amounted to 0.0691 ± 0.0011 in data set [1], 0.0943 ± 0.002 in data set [2] (ligand: 1 µM Pb) and 0.588 ± 0.05 in data set [2] (ligand: 30 µM Zn).
The corresponding values for N83T D131A P143L are 0.0646 ± 0.0011, 0.0895 ± 0.002 and 0.161 ± 0.012.
The corresponding values for L58F P61N are 0.0663 ± 0.0015, 0.0952 ± 0.0084 and 0.219 ± 0.02.
The corresponding values for P61E D64K D131C are 0.108 ± 0.0035, 0.243 ± 0.036 and 0.676 ± 0.084.
D64A R111L: the sfGFP reporter fluorescence in data set [1] stood at 0.061 ± 0.0013; in data set [2] (ligand: 1 µM Pb), 0.105 ± 0.01; in data set [2] (ligand: 30 µM Zn), 0.743 ± 0.022.
The corresponding values for L107C G128I D131C are 0.657 ± 0.018, 1.26 ± 0.22 and 1.77 ± 0.23.
The corresponding values for N83I D131S are 0.063 ± 0.0013, 0.0862 ± 0.0031 and 0.0633 ± 0.0013.
